# Test: yeast display, Sf9 membrane polyspecificity reagent, FACS + sequencing; frameworks hold sequencing errors
# In short: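 Synthetic nanobody libraries on Saccharomyces cerevisiae BJ5465 were galactose-induced for 36–48 hours, stained 1 hour at 4 °C with 10% biotinylated, detergent-solubilized Sf9 membrane reagent and enriched on streptavidin microbeads. FACS then separated cells into low and high (top ~1%) gates by anti-HA (expression) and streptavidin (reagent binding) fluorescence. Genes were colony-PCR amplified, MiSeq 2 × 250 sequenced and CDR-length filtered. A clone's polyreactivity label is that of its gate of origin.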
row,Sequence,polyreactivity (PSR sort gate)
1,QVQLVESGGGLVQAGGSLRLSCAASGRTLGPYTMGWYRQAPGKERELVAVISSRTGRTYYADSVKGRFTISRDNAKNTVYLQMNSLKPEDTAVYYCNAGGRYHAPSGDYWGQGTQVTVSS,low polyreactivity
2,QVQLVESGGGLVQAGGSLRLSCAASGRTLGRYAMGWYRQAPGKERELVAAINVGGGTTHYADSVKGRFTISRDNAKNTVYLQMNSLKPEDTAVYYCAASYRDGHIRHDYWGQGTQVTVSS,low polyreactivity
3,QVQLVESGGGLVQAGGSLRLSCAASGRTLIDNAKGWYRPAPGKERELVASISITNTYYADSVKGRFTISRDNAKNTVYLQMNSLKPEDTAVYYCNAEARPRGVDVEEAYFRYDYWGHGTQVTVSS,low polyreactivity
4,QVQLVESGGGLVQAGGSLRLSCAASGRTLLAYAMGWYRQAPGKEREFVAAISSRGVRTYYADSVKGRFTISRDNAKNTVYLQMNSLKPEDTAVYYCATRGTKSIKDVPGFRYGYWGQGTQVTVSS,high polyreactivity
5,QVQLVESGGGLVQAGGSLRLSCAASGRTLLYYAMGWYRQAPGKERELVARISTGGGTSYADSVKGRFTISRDNAKNTVYLQMNSLKPEDTAVFYCAAKRSYRRALLTLDYWGHGTQVTVSS,high polyreactivity
6,QVQLVESGGGLVQAGGSLRLSCAASGRTLLYYAMGWYRQAPGKERELVASISRGSSTNYADSVKGRFTISRDNAKNTVYLQMNSLKPEDTAVYWGQGTQVTVSS,low polyreactivity
7,QVQLVESGGGLVQAGGSLRLSCAASGRTLNDYAMEWYRQAPGKERELVAGITSGDSTYYADSVKGRFTISRDNAKNTVYLQMNSLIPEDTAVYYCAADSDTFYYTGYDYDYWGQGTQVTVSS,low polyreactivity
8,QVQLVESGGGLVQAGGSLRLSCAASGRTLPANGMGWYRQAPGKQREFVAAINWRGGITYYADSVKGRFTISRDNSKNTVYLQMNSLNPEDTAVYYCARLRYFLLNGSLRYGTSDRDYWGQGTQVTVSS,high polyreactivity
9,QVQLVESGGGLVQAGGSLRLSCAASGRTLPFYAMGWYRPAPGKERELVAAISRSGARTYYADSVKGRFTISRDHAKNTVYLQMNSLKPEDTAVYYFAAGFMWYIGNSKFDYWGQGTQVTVSS,high polyreactivity
10,QVQLVESGGGLVQAGGSLRLSCAASGRTLPINAMGWYIEAPGKERELVAAISTSGTRTYYADSVKGRFTISRDNAKNTVYLQMNSLKPEDTAVYYCNKDYWKVRSYDYCGQGTQVTVSS,low polyreactivity
11,QVQLVESGGGLVQAGGSLRLSCAASGRTLPYNAMAWYRQAPGKESELVAAITWSGGRTYYADSVKGRFTISRDNAKNTVYLQMNSLKPEDTAVYYCAAGKSSYGKPKYYYWGQGTQVTVSS,high polyreactivity
12,QVQLVESGGGLVQAGGSLRLSCAASGRTLQSYAMGWYRQAPGKERELVAAITSTGTTYYADSVKGRFTISRDNAKNTVYLQMNSLKPEDTAVYYCAAGGSIVLGHYHYVKMYYWGQGTQVTVSS,high polyreactivity
13,QVQLVESGGGLVQAGGSLRLSCAASGRTLQTYVMGWYRQAPGKERELVAAITRGGGSTYYADSVKGRFTISRDNAKNTVYLQMNSLKPEDTAVYYCAASALRFNSRFSHWYNYWGQGTQVTVSS,high polyreactivity
14,QVQLVESGGGLVQAGGSLRLSCAASGRTLRGNAMGWYRQAPGKERELVAGITSGGSTNYADSVKGRFTISRDNAKNTVYLQMNSLKPEDTAVYYCAAAYYLSFGRYYTNYDYWGQGTQVTVSS,high polyreactivity
15,QVQLVESGGGLVQAGGSLRLSCAASGRTLRLYAMGWSRQAPGKERELVAAISSRGRTYYADSVKGRFTISRDNAKNTVYLQMNSLKPEDTAVYYCNTAQFLREDYWGQGTQVTVSS,high polyreactivity
16,QVQLVESGGGLVQAGGSLRLSCAASGRTLRPYAMGWYRQAPGKEREFVAAIRWSGGSTYYADSVKGRFTISRDNAKNTVYLQMNSLKPEDTAVYYCAASFLTYYLSLYDYWGQGTQVTVSS,high polyreactivity
17,QVQLVESGGGLVQAGGSLRLSCAASGRTLRRYAMGGYRQAPGKERELVAAISSGVSTNYADSVKGRFTISRDNAKNTVYLQMNSLKPEDTAVYYCNKKRPVYALSIVPYYSWGQGTQVTVSS,high polyreactivity
18,QVQLVESGGGLVQAGGSLRLSCAASGRTLSANAMGWYRQAPGKERELVATISTRGGRTYYADSVKGRFTISRDNAKNTVYLQMNSLKPEDTAVYYCARLPPGDMDYWGQGTQVTVSS,low polyreactivity
19,QVQLVESGGGLVQAGGSLRLSCAASGRTLSGYAMGWYRQAPGKERELVAAISRRGGRTYYADSVKGRFTISRDNAKNTVYLQMNSLKPEDTAVYYCAAQVYTKTGDWQFYYWGQGTQVTVSS,high polyreactivity
20,QVQLVESGGGLVQAGGSLRLSCAASGRTLSGYVMGWYRQAPGKERELDAAIDWSGGTTYYADSVKGRFTISRDTAKNTVYVQMNSLKPEDTAVYYCAAEVLSWLYWPYYYWGQGSQVTVSS,high polyreactivity
21,QVQLVESGGGLVQAGGSLRLSCAASGRTLSRNAMGWYRQAPGKEREFVAAISQRGGSTYYADSVKGRFTISRDNAKNTVYLQMNSLKPEDTAVYYCARRYNAQDYARFDYWGQGTQVTVSS,high polyreactivity
22,QVQLVESGGGLVQAGGSLRLSCAASGRTLSRYTMGWYRQAPGKERELVAAISTSGSTYYADSVKGRFTISRDNAKNTVYFQMNSLKPEDTAVYYCNAVRRFLQYATGYDYWRQGTQVTVSS,high polyreactivity

row,Sequence,polyreactivity (PSR sort gate)
1,QVQLVESGGGLVQAGGSLRLSCAASGRTLSTNGMGWYRQAPGKERELVATITRRGGRTYYADSVKGRFTISRDNAKNTVYLQMNSLKPEDTAVYYCATEQADRRVTYNYWGQGTQVTVSS,high polyreactivity
2,QVQLVESGGGLVQAGGSLRLSCAASGRTLTIYAMGWYRQAPGKERELVATIRSSGSTNYADSVKGRFTISRDNAKNTVYLQMNSLKPEDTAVYYCSARGFYPTNVGKYNYWGQGTQVTVSS,high polyreactivity
3,QVQLVESGGGLVQAGGSLRLSCAASGRTLTLNAMGWYRQAPGKERELVAAISGSGGRTFYADSVKGRFTISRDNAKNTVYLQMNSLKPEDTAVYYCAADYFYLKWYEYWGQGTQVTVSS,high polyreactivity
4,QVQLVESGGGLVQAGGSLRLSCAASGRTLTRYTMGWYRQAPGKERELVATISRSGGNTHYADSLKGRFTISRDNAKNTVYFQMNSLKPEDTAVFYCNAVRYAIYGYDYWGQGTQVTVSS,high polyreactivity
5,QVQLVESGGGLVQAGGSLRLSCAASGRTLTYNVMGWYRQAPGKERELVASISSSGSSTHYADSVKGRFTISRDNAKNTVYLQMNSLKPEDTAVYYCAVEFWRPFWTRFDYWGQGTQVTVSS,high polyreactivity
6,QVQLVESGGGLVQAGGSLRLSCAASGRTLVSYAMGWYRQAPGKERELVATISWSGGSTYYADSVKGRFTISRDNAKNTVYLQMYSLKPEDTAVYYCNRSLTGYDELGYPVPYTYDYWGQATQVTVSS,low polyreactivity
7,QVQLVESGGGLVQAGGSLRLSCAASGRTLWVYAMGWYRQAPGKERELVAAITSSGVSTDYADSVKGRFTISRDNAKNTVYLQINSLKPEDTAVYYCAKRYWSRYAQYDYWGQGTQVTVSS,low polyreactivity
8,QVQLVESGGGLVQAGGSLRLSCAASGRTLWYYTMGWYRQAPGKERELVADITRGTSTNYADSVKGRFTISRDNAKNTVYLQMNSLKPEDTAVYSCNRAHGRSRYSRDYDSWGQGTQVTVSS,low polyreactivity
9,QVQLVESGGGLVQAGGSLRLSCAASGRTLYINAMGWYRQAPGKERELVAAIRRGGSTYADSVKGRFTISRDNAKNTVYLQMNSLKPEDTAVYYCAADVPRGKYKGDYWGQGTQVTVSS,high polyreactivity
10,QVQLVESGGGLVQAGGSLRLSCAASGRTLYLYAMGWYRQAPGKERELVAAITYGGGSTYYADSVKGRFTISRDNAKNTVYLQMNSLKPEDTAVYYCNAPGDGYLYDHTYDYWGQGTQVTVSS,low polyreactivity
11,QVQLVESGGGLVQAGGSLRLSCAASGRTLYLYAMGWYRQAPGKERELVAGITWSGGSTYYADSVKGRFTISRDNAKNTVYLQMNSLKPEDTAVYYCAAVSYPDYDYWGQGTQVTVSS,low polyreactivity
12,QVQLVESGGGLVQAGGSLRLSCAASGRTLYNYTMGWYRQAPGKERELVATINFSGGSTYYADSVKGRFTISRDNAKNTVYLQMNSLKPEDTAVYYCNARGYHYAYKGAYLGDDYWGQGTQVTVSS,low polyreactivity
13,QVQLVESGGGLVQAGGSLRLSCAASGRTLYRYAMGWYRQAPGKERELVAAIRSGGRTNYADSVKGRFTISRDNAKNTVYLLMNSLKPEDTAVYYCAARTLRYPSTYDYWGQGTQVSVSS,high polyreactivity
14,QVQLVESGGGLVQAGGSLRLSCAASGRTLYWYAMGWYRQAPGKEREFVAAITWRGGSTSYADSVKGRFTISRDNAKNTVYLQMNSLKPEDTAVYYCAASSFRSYYSGKYDYWGQGTQVTVSS,high polyreactivity
15,QVQLVESGGGLVQAGGSLRLSCAASGRTNKSNTLGWYRQEPGKQMELVAAISWRVGSTYYADSVKGRFTISRDNAKNTVYLQMNSLKPEDTAVYYCAARPWGYTVGSNYRYYLYGYWGLGTQVTVSS,high polyreactivity
16,QVQLVESGGGLVQAGGSLRLSCAASGRTSARYGMGWYRQAPGKERELVASIRRSGDSTYYADSVKGRFTISRDNAKNTVYLQLNSLKPEDTAVYYCAAGGKQGKRDYWGQGTQVTVSS,low polyreactivity
17,QVQLVESGGGLVQAGGSLRLSCAASGRTSFWNAMGWYRQAPGKERELVAAISASVGRTYYADSVKGRFTISRDNAKNTVYLQMNSLKPEDTAVYYCAKVYHAGTGYPSLGLDYWGQGTQVTVSS,low polyreactivity
18,QVQLVESGGGLVQAGGSLRLSCAASGRTSGFNTMGWYRQAPGKESELVAAISFSGGSTYYADSVKGRFTISRDNAKNTVYLHMNSLKPEDTAVYYCNALYRYLYRSGDYWGQGTQVTVSS,low polyreactivity
19,QVQLVESGGGLVQAGGSLRLSCAASGRTSGRYALGWYRQAPGKERELVAAITSSGGSTYYADSVKGRFTISRDTAKNTVYLQMNSLKPEDTAVYYCAAYFRGTGLDRSYKYDYWGQGTQVTVSS,high polyreactivity
20,QVQLVESGGGLVQAGGSLRLSCAASGRTSGVYAMGWYRQAPGKERELVAAITSDSTYYADSVKGRFTISRDNAKNTVYLQMNSLKPEDTAVYYCAADSLARRYDYWGQGTQVTVSS,low polyreactivity
21,QVQLVESGGGLVQAGGSLRLSCAASGRTSIWNSMGWYRQAPGKERELVASISWSGGSTYYADSVKGRFTISRDNAKNTVYLQMNSLKPEDTAVSYCAKTAYFLVFNEHLHNKRYDSWGQGTQVTVSS,low polyreactivity

# Reference: the nanobody polyreactivity screen of Harvey et al. (2022)
